Source: paper PMC4750992, “A New Mutation, hap1-2, Reveals a C Terminal Domain Function in AtMago Protein and Its Biological Effects in Male Gametophyte Development in Arabidopsis thaliana” (PLoS ONE, 2016)

Target: T1, His-AteIF4AIII (Arabidopsis thaliana, UniProt Q94A52 1-408)
T1 construct: AteIF4AIII, Arabidopsis thaliana; cDNA amplified from qrt cDNAs with primers AteIF4AIIIFNdeI and AteIF4AIIIRSalI; Vector pET16b; also called His-eIF4AIII; source: E. coli BL21 (DE3) (pET16b), purified and eluted with ProBond beads
T1 sequence (Q94A52 whole entry): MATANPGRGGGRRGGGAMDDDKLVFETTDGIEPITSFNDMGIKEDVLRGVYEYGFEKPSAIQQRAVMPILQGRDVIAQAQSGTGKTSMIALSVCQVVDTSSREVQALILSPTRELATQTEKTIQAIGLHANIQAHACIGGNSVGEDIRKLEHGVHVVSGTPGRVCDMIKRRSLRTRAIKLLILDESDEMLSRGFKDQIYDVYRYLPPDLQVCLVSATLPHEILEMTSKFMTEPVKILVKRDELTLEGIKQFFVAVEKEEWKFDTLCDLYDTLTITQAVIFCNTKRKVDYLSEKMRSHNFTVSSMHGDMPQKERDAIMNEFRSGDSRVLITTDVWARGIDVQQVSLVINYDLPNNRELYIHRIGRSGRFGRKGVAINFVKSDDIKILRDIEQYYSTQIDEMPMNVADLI
Experiment: pull-down; MBP, MBP-AtMago or MBP-AtMagoΔC kept on amylose beads; purified His-Y14 or His-eIF4AIII diluted in Column Buffer (200 mM NaCl, 1 mM EDTA, 20 mM Tris-HCl, pH 7.4), 300 μL, on ice 1 hour; three washes; Western blot with anti-His or anti-MBP
Settings: both partners purified

B1: MBP-AtMago (natural protein, Arabidopsis thaliana, UniProt O23676 1-150, looked up)
chain: MAAEEATEFYLRYYVGHKGKFGHEFLEFEFREDGKLRYANNSNYKNDTIIRKEVFLTPAVLKECKRIVSESEILKEDDNNWPEPDRVGKQELEIVLGNEHISFATSKIGSLVDCQSSNDPEGLRIFYYLVQDLKCLVFSLISLHFKIKPI
notes: AtMago (HAP1), Arabidopsis thaliana, full length protein of 150 amino acids; cDNA amplified from qrt;HAP1/hap1-2 cDNAs; Cloned BamHI/HindIII into pMAL-c2; also called HAP1; HAPLESS1
B1: binds.
